Source: article PMC7517009, “Variants of the human RAD52 gene confer defects in ionizing radiation resistance and homologous recombination repair in budding yeast” (Microbial Cell, 2020)
Values joined by “and” are separate entries in the source; they are usually repeats but may differ in a detail not shown here. Equal entries are not always repeated.

Columns and labels:
[1] = biological target: the molecule itself; test: two-hybrid; Gal4 DNA-binding domain (pGBT9) and Gal4 transcription activation domain (pGAD424) fusions in yeast strain Y187; beta-galactosidase specific activity in cell extracts, Miller units
[2] = biological target: the molecule itself; test: SEC; Superdex 200 in 10 mM Tris HCl, 300 mM NaCl, 2 mM BME, pH 8.0, 0.5 mL/min; size of the multimer estimated from the elution volume

| Protein | beta-galactosidase activity, fold above background [1] [fold] | stoichiometry N [2] |
| --- | --- | --- |
| HsRAD52 (human RAD52), wild type, Gal4 fusion proteins (natural protein, UniProt P43351 1-418, looked up, RAD52, human, wild type; no chain carries both; Probably the whole protein; also called pGBT9-HsRAD52; pGAD424-HsRAD52; source: yeast two-hybrid fusion, yeast strain Y187) MSGTEEAILGGRDSHPAAGGGSVLCFGQCQYTAEEYQAIQKALRQRLGPEYISSRMAGGGQKVCYIEGHRVINLANEMFGYNGWAHSITQQNVDFVDLNNGKFYVGVCAFVRVQLKDGSYHEDVGYGVSEGLKSKALSLEKARKEAVTDGLKRALRSFGNALGNCILDKDYLRSLNKLPRQLPLEVDLTKAKRQDLEPSVEEARYNSCRPNMALGHPQLQQVTSPSRPSHAVIPADQDCSSRSLSSSAVESEATHQRKLRQKQLQQQFRERMEKQQVRVSTPSAEKSEAAPPAPPVTHSTPVTVSEPLLEKDFLAGVTQELIKTLEDNSEKWAVTPDAGDGVVKPSSRADPAQTSDTLALNNQMVTQNRTPHSVCHQKPQAKSGSWDLQTYSADQRTTGNWESHRKSQDMKKRKYDPS | 80 |  |
| HsRAD52-S346X, His-tagged, bacterially expressed (domain or fragment, human, UniProt P43351 1-345, looked up, RAD52, human, naturally occurring truncating variant S346X (stop codon in place of S346); pET28b construct; also called pLAY970; source: E. coli Artic Express, purified (Ni-NTA, heparin, Superdex 200)) MSGTEEAILGGRDSHPAAGGGSVLCFGQCQYTAEEYQAIQKALRQRLGPEYISSRMAGGGQKVCYIEGHRVINLANEMFGYNGWAHSITQQNVDFVDLNNGKFYVGVCAFVRVQLKDGSYHEDVGYGVSEGLKSKALSLEKARKEAVTDGLKRALRSFGNALGNCILDKDYLRSLNKLPRQLPLEVDLTKAKRQDLEPSVEEARYNSCRPNMALGHPQLQQVTSPSRPSHAVIPADQDCSSRSLSSSAVESEATHQRKLRQKQLQQQFRERMEKQQVRVSTPSAEKSEAAPPAPPVTHSTPVTVSEPLLEKDFLAGVTQELIKTLEDNSEKWAVTPDAGDGVVKP |  | ~6 subunits and ~8 subunits |
| HsRAD52_(1-212), the N-terminal 212 amino acids of HsRAD52 (domain or fragment, human, UniProt P43351 1-212, looked up, RAD52, human, N-terminal 212 amino acids (1-212); pET28b construct; also called pLAY855; source: E. coli Artic Express, purified (Ni-NTA, heparin, Superdex 200)) MSGTEEAILGGRDSHPAAGGGSVLCFGQCQYTAEEYQAIQKALRQRLGPEYISSRMAGGGQKVCYIEGHRVINLANEMFGYNGWAHSITQQNVDFVDLNNGKFYVGVCAFVRVQLKDGSYHEDVGYGVSEGLKSKALSLEKARKEAVTDGLKRALRSFGNALGNCILDKDYLRSLNKLPRQLPLEVDLTKAKRQDLEPSVEEARYNSCRPNM |  | 13 subunits and 14 subunits |
| HsRAD52-G59R_(1-212), the N-terminal 212 amino acids of HsRAD52-G59R (domain or fragment, human, UniProt P43351 1-212, looked up, RAD52, human, N-terminal 212 amino acids (1-212) with the naturally occurring variant G59R; pET28b construct; also called pLAY971; source: E. coli Artic Express, purified (Ni-NTA, heparin, Superdex 200)) MSGTEEAILGGRDSHPAAGGGSVLCFGQCQYTAEEYQAIQKALRQRLGPEYISSRMAGRGQKVCYIEGHRVINLANEMFGYNGWAHSITQQNVDFVDLNNGKFYVGVCAFVRVQLKDGSYHEDVGYGVSEGLKSKALSLEKARKEAVTDGLKRALRSFGNALGNCILDKDYLRSLNKLPRQLPLEVDLTKAKRQDLEPSVEEARYNSCRPNM |  | 13 subunits and 14 subunits |
